This note sets out measurements from article PMC10391570 (Cell Reports Methods, 2023).

Holding throughout (assay): ELISA
For experiment [1], the target named is Der p2 (Dermatophagoides pteronyssinus, UniProt P49278, biotin (Biotin Conjugation Kit, Lightning-Link)).
Experiment [2] concerns the target Der f1 (Dermatophagoides farinae, UniProt P16311, biotin (Biotin Conjugation Kit, Lightning-Link)).
For experiment [3], the target named is Ole e1 (Olea europaea, UniProt P19963, biotin (Biotin Conjugation Kit, Lightning-Link)).
The target of experiment [4] is Fel d1 (Felis catus, UniProt P30438;P30440).
For experiment [5], the target named is Der p1 (Dermatophagoides pteronyssinus, UniProt P08176, biotin (Biotin Conjugation Kit, Lightning-Link)).
Sequence of Der p1 (P08176 99-320): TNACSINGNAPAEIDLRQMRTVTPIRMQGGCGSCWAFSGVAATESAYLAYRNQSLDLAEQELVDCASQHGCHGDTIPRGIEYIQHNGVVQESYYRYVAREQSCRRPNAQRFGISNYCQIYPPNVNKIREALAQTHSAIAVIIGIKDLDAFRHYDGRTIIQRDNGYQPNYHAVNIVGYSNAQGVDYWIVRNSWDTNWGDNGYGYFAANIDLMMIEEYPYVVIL

Sequence of Der p2 (P49278 18-146): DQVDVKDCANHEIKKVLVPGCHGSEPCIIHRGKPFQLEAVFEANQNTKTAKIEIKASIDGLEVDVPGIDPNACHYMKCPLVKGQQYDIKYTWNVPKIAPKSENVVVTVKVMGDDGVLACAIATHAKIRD
Sequence of Der f1 (P16311 99-321): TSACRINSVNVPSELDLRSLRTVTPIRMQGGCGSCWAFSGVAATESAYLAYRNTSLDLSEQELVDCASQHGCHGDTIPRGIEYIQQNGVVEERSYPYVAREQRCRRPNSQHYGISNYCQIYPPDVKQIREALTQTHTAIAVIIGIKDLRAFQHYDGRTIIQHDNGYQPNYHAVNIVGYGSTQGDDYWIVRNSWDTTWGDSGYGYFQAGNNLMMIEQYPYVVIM
Sequence of Fel d1 (P30438 23-92, chain 1 of 2): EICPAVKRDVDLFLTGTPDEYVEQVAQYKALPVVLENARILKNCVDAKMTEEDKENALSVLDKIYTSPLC
Sequence of Fel d1 (P30440 18-109, chain 2 of 2): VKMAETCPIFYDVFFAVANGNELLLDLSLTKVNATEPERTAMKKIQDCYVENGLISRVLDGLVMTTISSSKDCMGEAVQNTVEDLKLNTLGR

B1: IgE mAb 21_2 (antibody, V domains shown)
VH: QVQLQQSGPELVKPGASVKISCKAPGNAFSYSWMNWVKQRPGKGLEWVGRIYPGDGDTNYNGKFMGKATLTADKSSNTAYIQLSSLTSEDSAVYFCARSGGGTLYWYFDVWGTGTTVTVSS
VL: DIVMTQSPSSLALSVGQKVTMNCRSSQSLLNSFNQKNYLAWFQQKPGQSPRLLIYFASTRESGVPDRFIGSGSGTDFTLTISSVQAEDLADYFCQQHYNTPLTFGAGTTLELK
Consider B1, for which, in experiment [1], the binding result is “binds”.

B2: IgE mAb1_2 (antibody, V domains shown)
VH: QIQLVQSGPELKKPGETVKISCKASGYTFTTYGMSWVKQAPGKGLKWMGWINTYSGVPTYADDFKGRFVFSLETSASTAYLQINNLKNEDTATYFCARAYYYGSSYLIWYFDVWGTGTTVTVSS
VL: NIVLTQSPASLAVSLGQRATISCRASESVDSYGNSFMHWYQQKPGQPPKLLIYLASNLESGVPARFSGSGSRTDFTLTIDPVEADDAATYYCQQNNEDPYTFGGGTKLEIK
Take B2: in experiment [2], the binding result is “binds”.

B3: IgE monoclonal antibody mAb12_2 (antibody, V domains shown)
VH: QAYLQQSGAELVRPGASVKMSCKASGYTFISYNMHWVKQTRRQGLEWIGAIYPGNGDTSYNQKFKGKATLTVDKSSSTAYMQLSSLTSEDSAVYFCARWDYYGSSYGAYWGQGTLVTVSA
VL: DIQMTQSPASLSVSVGETVTITCRASENIYSNLAWYQQKQGKSPQLLVYAATNLADGVPSRFSGSGSGTQYSLKINSLQSEDFGSYYCQHFWGTPWTFGGGTKLEIK
As for B3, the binding result in experiment [3] was “binds”; in experiment [4] it was “no binding”; in experiment [5], “binds”; in experiment [1], “binds”; in experiment [2] it was “binds”.

B4: IgE mAb 8_2 (antibody, V domains shown)
VH: QVLLKESGPGLVAPSQSLSITCTVSGFSLTSYGVSWVRQPPGKGLEWLGVIWGDGNTDYHSALISRLSIRKDNSKSQVFLKLNSLQTDDTATYYCAIGSPFAYWGQGTLVTVSA
VL: DVLMTQTPLSLPVSLGDQVSISCRSSQNIVHSTGNTYLEWYLQKPGQSPKLLIFKVSNRLSGVPDRFSGSGSGTDFTLNISRVEAADLGIYSCFQGSHVPFTFGSGTKLEIK
With B4, the binding result in experiment [1] is “binds”.
